# Experimental data: the DeepSol protein solubility set
# Experiment: soluble on expression in E. coli; label from the status in PepcDB or PDB records
row,Sequence,soluble on expression in E. coli
1,KCLVLDLDGTLWGGVVGEDGIEGIKLGPTGSGKPFYEFQKYIKSLFKKGVILAVNSKNNYDDAMEVIRKHPYMVLREEDFADFEINWQDKASNMRAIAKKLNIGIDSMVFMDDD,not soluble
2,KDFLAMFSPKCGGCNRPVLENYLSAMDTVWHPECFVCGDCFTSFSTGSFFELDGRPFCELHYHHRRG,soluble
3,KFRTMRQNLQEASDVLDDQIESFTKIIQNHYKLSPNDFADPTIQSQSEIYAVGRIVPDSPTYDKFLNPESLSLETSRMGGVGRRVRLDLSQVNELSFFLGQIVAFKGKNANGDYFTVNSILPLPYPNSPVSTSQELQEFQANLEGSSLKVIVTCGPYFANDNFSLELLQEFIDSINNEVKPHVLIMFGPFIDITHPLIASGKLPNFPQFKTQPKTLDELFLKLFTPILKTISPHIQTVLIPSTKDAISNHAAYPQASLIRKALQLPKRNFKCMANPSSFQINEIYFGCSNVDTFKDLKEVIKGGTTSSRYRLDRVSEHILQQRRYYPIFPGSIRTRIKPKDVSTKKETNDMESKEEKVYEHISGADLDVSYLGLTEFVGGFSPDIMIIPSELQHFARVVQNVVVINPGRFIRATGNRGSYAQITVQCPDLEDGKLTLVEGEEPVYLHNVWKRARVDLIAS,soluble
4,KGDFVFKPYLLVQTCANFNWYDDEGLDKAYNQDNVANSGFSIPYAVLGFTGKAFGKVAFNLSINAAASGGALLQQAWFDVQLKKQFAVRVGKFKTPFSHAYLTTLGETLLPQLPVSLTSAIILPYSLNAVTPNIGTGFDLGVEIHGLLADKFGYEVGLFNGTGSSVNTATKTLSDDWHIPSLLYAGRFTYMPKGVMPSTQGNPNRLNEDKIMFGVSASINVESENESTNDTRVGVEFAMLKNKLYLGAEAYYMNVGFTDRQKINETYNYLGGYVQGGYFVAPRLQAALRYDFFNRNGTSDDGFLNMPAVGVNYFFKGCNLKLQAMYQYIARTGHDTQLDRDNDNLGLATHSATVMLQYTF,not soluble
5,KGHLTRLGLEFFDQPAVPLARAFLGQVLVRRLPNGTELRGRIVETEAYLGPEDEAAHSRGGRQTPRNRGMFMKPGTLYVYIIYGMYFCMNISSQGDGACVLLRALEPLEGLETMRQLRSTLRKGTASRVLKDRELCSGPSKLCQALAINKSFDQRDLAQDEAVWLERGPLEPSEPAVVAAARVGVGHAGEWARKPLRFYVRGSPWVSVVDRVAEQDTQA,soluble
6,KGKCVIFIIDGLGDRPNEKGLTPLKEAKTPTMDKIAKEGICGLMNAIDIGIRPGSDTAHLAILGYNPYEVYTGRGPLEAFGVGLDLKEGDIAFRCNFATVDENFVVLDRRAGRISPEEAEELEKEIDGLEIDGVKVIFKSSKGYRGALVLRGEGLSCRVSDGDPHEEGVKVSEIKPLDDSEEAKRTAEILNKLLKIVYEKLNNHPINEERRKKGLPPANIILPRGAGVVPKIEKFSEKYNMKGACICGTGLIKGMAKMIGLDVIEVEGATGTPKTNFMGKAKALVEALKEYDFVLVNVKGADEASHDGNYELKKEVLEKIDEMLAYVFEHINKDEVYFVLTGDHSTPIEMKDHSADPIPIVIWGKSVRVDDVTEFNEFACAKGALHWIKGEHVMKILLDLTG,not soluble
7,KGLSADKKYFETRVNPTSVFWTGGKWKERLVQIMSQTQEQDILKFLKQTASPAMHELQRELSEEYGLSVRVDKMFHRDEPAIEFVIRKETMRDFMYGIKSVGQDVSDQLINDGKLPHIRHQTTYKPYAYFFDGRVGYDVQYMNKDELIADILKNYERYLMLLDDVGQELMAHEQVELAE,not soluble
8,KGNTFLWLDDILYCERVDGLVFAYTKNKVYQIFHSLRDLEASYYRLGYVRCSKSMIVNIYKIHYFNSEPYGRIRATMENKEEIIISRKYANRIRTILQ,not soluble
9,KLGTSTGEFTGSNQTTQPTAIMELINKVQKDAANAQLSIAAPLSSSAYIPKGDVTIKDIMSVYVYENYLYGIKMTGKQLKDWLEYSVRYYKQVSSPNDSIAKDPALNVPDYNLDQLYGATYDIDLTQPACTIDPSTGRIASGDRIKNLKINGVPIKDSDVFTVAINDYRYNGGGGFMKAAGISNTDPSIVTYSSAKALGDDGQVRSLMQSYIKNNQTISPENSNNWKLYTT,not soluble
10,KLKNYKTSELMIQSSNNYKLESLFITSNIKTRDTMILVHGIGSSYYEMLKVAYRYLDKGYNVLVYNQRNTGNSGGDNYTFGLYERYDLDSLVKFVKNKFPEGRLGVHGFSMGAGTAAMHSEINSKDDKVDFYILDSPYSEMKDAIRMGVLEKRIPDILINYVVTCGDLYNKFKSGFWYSDVKPYESVEKSNVPILFIHGTKDTVCNYQNSKKMYDLVKHDKKDLWLIEGIGHVDGFEHDSTVYFNKIFKFIDSNVLSDKS,not soluble
11,KNNPDPTIYPVLDWNDIKFQDVIGEGNFGQVLKARIKKDGLRMDAAIKRMKEYASKDDHRDFAGELEVLCKLGHHPNIINLLGACEHRGYLYLAIEYAPHGNLLDFLRKSRVLETDPAFAIANSTASTLSSQQLLHFAADVARGMDYLSQKQFIHRDLAARNILVGENYVAKIADFGLSRGQEVYVKKTMGRLPVRWMAIESLNYSVYTTNSDVWSYGVLLWEIVSLGGTPYCGMTCAELYEKLPQGYRLEKPLNCDDEVYDLMRQCWREKPYERPSFAQILVSLNRMLEERKTYVNTTLYEKFTYAGIDCSAEEAA,soluble
12,KPPIPPQVEEEYYTIAEFQTTIPDGISFQAGLKVEVIEKNLSGWWYIQIEDKEGWAPATFIDKYKKTSNASRPNFLAPLPHEVTQLRLGEAAALENNTGSEATGPSRPLPDAPHGVMDSGLPWSKDWKGSKDVLRKASSDMSASAGYEEISDPDMEEKPSLPPRKESIIKSEGELLERERERQRTEQLRGPTPKPPGVILPMMPAKHIPPARDSRRPEPKPDKSRLFQLKNDMGLECGHKVLAKEVKKPNLRPISKSKTDLPEEKPDATPQNPFLKSRPQVRPKPAPSPKTEPPQGEDQVDICNLRSKLRPAKSQDKSLLDGEGPQAVGGQDVAFSRSFLPGEGPGRAQDRTGKQDGLSPKEISCRAPPRPAKTTDPVSKSVPVPLQEAPQQRPVVPPRRPPPPKKTSSSSRPLPEVRGPQCEGHESRAAPTPGRALLVPPKAKPFLSNSLGGQDDTRGKGSLGPWGTGKIGENREKAAAASVPNADGLKDSLYVAVADFEGDKDTSSFQEGTVFEVREKNSSGWWFCQVLSGAPSWEGWIPSNYLRKKP,soluble
13,KPYPYQQDMLESLQAEREQHNRHRNLLVAATGTGKTVVAALDYRSMCDALGRRPRLLFIAHRKEILQQALRTFREVLSDGNFGELLVDGVLPKEWTHVFASIQSLNTSRMEALGKDHFEFIIIDEFHHAQAISYRKVMDYFEPQELLGLTATPERG,not soluble
14,KREPALNPNEYKKFMLREKQIINHNTRLFRFNLHHPEDVVGLPIGQHMSVKATVDGKEIYRPYTPVSSDDEKGYFDLIIKVYEKGQMSQYIDHLNPGDFLQVRGPKGQFDYKPNMVKEMGMIAGGTGITPMLQVARAIIKNPKEKTIINLIFANVNEDDILLRTELDDMAKKYSNFKVYYVLNNPPAGWTGGVGFVSADMIKQHFSPPSSDIKVMMCGPPMMNKAMQGHLETLGYTPEQWFIF,soluble
15,KRQKIHLGDRSQKCSKCGIIFIRRSTLSRRKTPMCEKCRKDSCQEAALNKDEGNESGKKT,soluble
16,KSAIVHLINYQDDAELATRALPELTKLLNDEDPVVVTKAAMIVNQLSKKEASRRALMGSPQLVAAVVRTMQNTSDLDTARCTTSILHNLSHHREGLLAIFKSGGIPALVRMLSSPVESVLFYAITTLHNLLLYQEGAKMAVRLADGLQKMVPLLNKNNPKFLAITTDCLQLLAYGNQESKLIILANGGPQALVQIMRNYSYEKLLWTTSRVLKVLSVCPSNKPAIVEAGGMQALGKHLTSNSPRLVQNCLWTLRNLSDVATKQEGLESVLKILVNQLSVDDVNVLTCATGTLSNLTCNNSKNKTLVTQNSGVEALIHAILRAGDKDDITEPAVCALRHLTSRHPEAEMAQNSVRLNYGIPAIVKLLNQPNQWPLVKATIGLIRNLALCPANHAPLQEAAVIPRLVQLLVKAHQDAQRHVAAGTQQPYTDGVRMEEIVEGCTGALHILARDPMNRMEIFRLNTIPLFVQLLYSSVENIQRVAAGVLCELAQDKEAADAIDAEGASAPLMELLHSRNEGTATYAAAVLFRISEDKNPDYRKRVSVELTNSLFKHD,soluble
17,KSLLTAKTRNTIIFAFHPQAQKSSVAAAKIVYQAARKAGAPKDFIQWIETPSLENTTALMQNPEIASILATGGPSMVHAALTSGNPSMGVGAGNGAVFIDHTARVRRAAEDLLLSKRFDNGMICATE,not soluble
18,KTGFFVGPMAEFTLPIIGIGADVAALYSQTDLGADGEKTMKLKTFAVPVNLKWSFGLGSMLGAYIAAGPQFDFNIGNKTWTRELSLKKSTTSFNVGAGLKLIRHLQLGVNYNFALSKTGTYEYYTEGESGDGHHSVNIKNNTWQVSLAYLF,not soluble
19,LDDYDWFAGNISRSQSEQLLRQKGKEGAFMVRNSSQVGMYTVSLFSKAVNDKKGTVKHYHVHTNAENKLYLAENYCFDSIPKLIHYHQHNSAGMITRLRHPVS,soluble
20,LDPEEIRKRLEHTERQFRNRRKILIRGLPGDVTNQEVHDLLSDYELKYCFVDKYKGTAFVTLLNGEQAEAAINAFHQSRLRERELSVQLQPTDALLCVANLPPSLTQQQFEELVRPFGSLERCFLVYSERTGQSKGYGFAEYMKKDSAARAKSDLLGKPLGPRTLYVHWTDAGQLTPALLHSRCLCVDRLPPGFNDVDALCRALSAVHSPTFCQLACGQDGQLKGFAVLEYETAEMAEEAQQQADGLSLGGSHLRVSFCAPGPPGRSMLAALIAAQATALNRG,soluble
21,LGGVFKKAGSKGLKGVRLVISDAHEGLKAAIKKILTGSAWQRCRVHFMRNVLSQVPKHYQGMVSSIIRTIFAQNDQESAREQLRHVVDELKNRFPKAMKILEEAEEEILAYMAFPREHWAQIHSTNPLERLNREIRRRTDVVCIFPNREAVIRLVGAMLMEQNDEWKVGRRYFSLESMSKITSINEFTLTPVALLHK,soluble
22,LITPQYKSEAKLYVLSKETTLTSLADLQIGSQLTQDYKILVGSRPVLQGVVDHMKLDMTYRKLEKKLTIDNPNNTRILTLTIKDPNPYLAKSIVDEVANTASDYIGEIMEMVPPKLIEDGEVASEKASPNVLKNT,not soluble
23,LKEILDEMFRDEVQKLKYFLEDVKEEDEELYNKIVDALKLFKENYEIEDIKIPKKIRVFLVKNNILFLNPQKGSLKPQSYLVWNAIKMLL,not soluble
24,LLRHISDAFAEDPLRVLRVARFAARFHHLGFSIAEQTLELMQKMTACGELNHLTAERIWRETEKALHTESPHIYFQVLRKVNALAILFPEIDQLFGQIQSVKYHLETDRGQHTLLALQQAKLLVKQAHNPTALLWAVLCHDLGKDLISAEMLPHHYQPNVTGIQLTHQLADRLKVPTAVKELALLVNKYHTNCHKIAELDSERVLELFNQLDVWRKPQRLDDFLLACEADARARLGAEYCSYPQA,not soluble
25,LNLSGLSLSCEYQPFVCPHTKHIHGYEALARFYLGQGQAIAPNLVFEQLHENSNALAAVEFQAKTFQLKHAPARQSLFVNVDPHAANGVHTQKLLDLLSSHPQLTVEIIENTCISDAELANQLFHQFKTANLNVALDDIGAPHSMLSVDLMMNVDYLKFDRHWLNLVAEPHGIALLSALIEFGKRTGKQCILEGIETEAQLQLARELNVDLVQGFLFKP,not soluble
26,LNSPMITIVGTRTMTNYGKKILEEFVPKIIDSGIAVVSGLAKGIDAYAHQLALEKQGTAIAVIGNGTNISYPAENQSIQKRIISDGLLLSEYFPKSRPKQYHFPARNRILAGLTSATLVVEAKERSGSLITAAYATQENRNVLAIPGDLNRNNSNGTNQLIADGAKAVLKIDDILNE,not soluble
